As a reminder, the Km is the concentration of substrate that gives half-maximal velocity.

Read-outs that look alike come from different tables or passages of the source.

The subject of one data set is T1, MP.
T1 construct: small subunit of first 198 amino acids of maize BT2 and last 277 of potato tuber small subunit, with wild type SH2
Description: Initial-rate assay without 3-PGA, ATP and G-1-P both varied (0.01-10 mM and 0.1-25 mM), global fit to a sequential mechanism. It counts as biochemical. Conditions: read-out: G-1-P Km (absence of 3-PGA).

The next data set relates to T2, MP + SH2-E.
T2 construct: chimeric small subunit MP (maize 198 / potato 277 amino acids) with SH2-E
The data set is described as above. It counts as biochemical. Conditions: read-out: G-1-P Km (absence of 3-PGA).

Data set [1] deals with maize endosperm AGPase. Description: Pi inhibition in the presence of 3-PGA. It counts as biochemical. An excerpt:
(§1) (2) v=Vm(S/Ks+(βSI)/(αKiKs))/(1+S/Ks+I/Ki+SI/αKiKs)P-MT
(§2) (3) v=Vm(S/Ks)/(1+S/Ks+I/Ki+SI/αKiKs)L-MT

Data set [2] deals with maize endosperm AGPase. The data set can be described thus: Kinetic values in the absence of 3-PGA. It is filed as biochemical. An excerpt: (1) v=VAB/(KiaKmb+KmbA+KmaB+AB
The test system of data set [3] is maize endosperm AGPase. Description: 3-PGA activation constant (Ka), Vmin and Vmax. Particulars: change in activity from Vmin to total velocity with 3-PGA; substrates 2 mM. It is filed as biochemical. The text has this: All reactions were developed as above.
Data set [4] deals with maize endosperm AGPase. Description: Catalytic activity at 37 and 55°C (end point PPi assay). It is filed as biochemical. As for the experimental part: Reactions proceeded for 2, 4, 6, 8, 10, and 15 min and were terminated by boiling. Reaction mixes (1300 μl) were pre-warmed to 37°C or 55°C and the assay was started with the addition of the enzyme. Assay time points (200 μl) were removed at the appropriate time and boiled for 2 min. At 37°C all reactions were linear for 15 min; however, at 55°C rates were linear for a shorter duration. A rate was only calculated if the reactions were linear for at least 10 min.
The amount of PPi produced in the reaction was coupled to a decrease in NADH concentration. Coupling reagent contained 25 mM imidazole pH 7.4, 4 mM MgCl2, 1 mM EDTA, 0.2 mM NADH, 0.725 U aldolase, 0.4 U triose phosphate isomerase, 0.6 U glycerophosphate dehydrogenase, 1 mM fructose 6-phosphate and 0.8 μg purified PPi-PFK per reaction. Blank samples contained complete reaction mixtures minus the enzyme. Change in absorbance between the blank and the reaction was used to calculate the amount of PPi produced. All reactions were linear with time and enzyme concentration.

Data set [5] has as its system maize endosperm AGPase. The data set can be described thus: Pi inhibition in the absence of 3-PGA. It counts as biochemical. Conditions: for α / β: absence of 3-PGA.
Source text: as §1, §2

The test system of data set [6] is maize endosperm AGPase. Conditions: cited from earlier work.
The next data set relates to E. coli AC70R1-504. Particulars: 2015, cited from earlier work.
Data set [7] deals with maize endosperm AGPase. More on the design: method as in Georgelis et al., 2009; Boehlein et al., 2015. Conditions: ref Georgelis et al., 2009; Boehlein et al., 2015; cited from earlier work.
For data set [8], the system named is maize endosperm AGPase. Particulars: ref Boehlein et al., 2015; cited from earlier work.
Setting [9] is: growth at 37 and 42°C, SH2 variants, ref Boehlein et al.

As to `O=P(O)(O)O[C@H]1O[C@H](CO)[C@@H](O)[C@H](O)[C@H]1O` [G-1-P, glucose-1-phosphate], the Km with MP was 11.9 ± 3 mM; in the data set on MP + SH2-E, 0.09 ± 0.008 mM.

B1: wt: wild type maize endosperm AGPase: SH2 large subunit with BT2 small subunit, expressed in E. coli (protein, UniProt P55241 46-516; P55241 46-516, looked up)
Glucose-1-phosphate … 1: FGGRVAATTQCILTSDACPETLHSQTQSSRKNYADANRVSAIILGGGTGSQLFPLTSTRATPAVPVGGCYRLIDIPMSNCFNSGINKIFVMSQFNSTSLNRHIHRTYLEGGINFADGSVQVLAATQMPEEPAGWFQGTADSIRKFIWVLEDYYSHKSIDNIVILSGDQLYRMNYMELVQKHVEDDADITISCAPVDESRASKNGLVKIDHTGRVLQFFEKPKGADLNSMRVETNFLSYAIDDAQKYPYLASMGIYVFKKDALLDLLKSKYTQLHDFGSEILPRAVLDHSVQACIFTGYWEDVGTIKSFFDANLALTEQPSKFDFYDPKTPFFTAPRCLPPTQLDKCKMKYAFISDGCLLRECNIEHSVIGVCSRVSSGCELKDSVMMGADTYETEEEASKLLLAGKVPVGIGRNTKIRNCIIDMNARIGKNVVITNSKGIQEADHPEEGYYIRSGIVVILKNATINDGSVI
Glucose-1-phosphate … 2: FGGRVAATTQCILTSDACPETLHSQTQSSRKNYADANRVSAIILGGGTGSQLFPLTSTRATPAVPVGGCYRLIDIPMSNCFNSGINKIFVMSQFNSTSLNRHIHRTYLEGGINFADGSVQVLAATQMPEEPAGWFQGTADSIRKFIWVLEDYYSHKSIDNIVILSGDQLYRMNYMELVQKHVEDDADITISCAPVDESRASKNGLVKIDHTGRVLQFFEKPKGADLNSMRVETNFLSYAIDDAQKYPYLASMGIYVFKKDALLDLLKSKYTQLHDFGSEILPRAVLDHSVQACIFTGYWEDVGTIKSFFDANLALTEQPSKFDFYDPKTPFFTAPRCLPPTQLDKCKMKYAFISDGCLLRECNIEHSVIGVCSRVSSGCELKDSVMMGADTYETEEEASKLLLAGKVPVGIGRNTKIRNCIIDMNARIGKNVVITNSKGIQEADHPEEGYYIRSGIVVILKNATINDGSVI
modifications: expressed in E. coli
B1: the α worked out at 4.61 ± 0.07 in the data set with maize endosperm AGPase [1] (varied substrate ATP), 0.90 ± 0.012 in the data set with maize endosperm AGPase [1] (varied substrate G-1-P), 0.063 ± 0.034 in the data set with maize endosperm AGPase [5] (varied substrate ATP) and 0.095 ± 0.065 in the data set on maize endosperm AGPase [5] (varied substrate G-1-P). Further, the β is recorded as 0.83 ± 0.037 in the data set with maize endosperm AGPase [1] (varied substrate ATP), 0.52 ± 0.023 in the data set with maize endosperm AGPase [1] (varied substrate G-1-P), 0.52 ± 0.17 in the data set with maize endosperm AGPase [5] (varied substrate ATP) and 0.92 ± 0.31 in the data set with maize endosperm AGPase [5] (varied substrate G-1-P). Further, the “reduction of the Km values of both substrates by binding of 3PGA” value in the data set on maize endosperm AGPase [2] (Km without 3PGA versus with 3PGA) is “over 50 fold”. Further, the Km in the data set on maize endosperm AGPase [2] (absence of 3-PGA, read-out: ATP Km) was about 4 mM; in the data set on maize endosperm AGPase [2] (read-out: G-1-P Km (absence of 3-PGA)) it was 3 mM. For the same molecule, the Vmax in the data set with maize endosperm AGPase [3] stood at 6352 ± 540. For the same molecule, in the data set with maize endosperm AGPase [4] (37°C, 5 mM ATP, 2 mM G-1-P, 2.5 mM 3-PGA, purified enzyme from E. coli), the “Activity at 37°C” value turned out to be 5415 ± 268. In addition, the “activity at 55°C (in words)” value in the data set with maize endosperm AGPase [4] (55°C) is reported as “not active”. The “Ki for Pi higher in the absence of 3PGA compared to the presence of 3PGA” value in the data set on maize endosperm AGPase [5] is listed as 5–10 fold.

B2: P372A: SH2 large subunit variant P372A (protein, UniProt P55241 46-516, looked up, variant P372A)
Glucose-1-phosphate …: FGGRVAATTQCILTSDACPETLHSQTQSSRKNYADANRVSAIILGGGTGSQLFPLTSTRATPAVPVGGCYRLIDIPMSNCFNSGINKIFVMSQFNSTSLNRHIHRTYLEGGINFADGSVQVLAATQMPEEPAGWFQGTADSIRKFIWVLEDYYSHKSIDNIVILSGDQLYRMNYMELVQKHVEDDADITISCAPVDESRASKNGLVKIDHTGRVLQFFEKPKGADLNSMRVETNFLSYAIDDAQKYPYLASMGIYVFKKDALLDLLKSKYTQLHDFGSEILPRAVLDHSVQACIFTGYWEDVGTIKSFFDANLALTEQPSKFDFYDAKTPFFTAPRCLPPTQLDKCKMKYAFISDGCLLRECNIEHSVIGVCSRVSSGCELKDSVMMGADTYETEEEASKLLLAGKVPVGIGRNTKIRNCIIDMNARIGKNVVITNSKGIQEADHPEEGYYIRSGIVVILKNATINDGSVI
Turning to B2, the “effect on 3-PGA Ka (in words)” value with maize endosperm AGPase [6] (ref Georgelis et al., 2009, Boehlein et al., 2015) is “Increased 3-PGA Ka”. Moreover, in the data set with E. coli AC70R1-504 (ref Georgelis et al., 2009, Boehlein et al.), the “glycogen staining (in words)” value is reported as “reduced glycogen staining”. Also, on maize endosperm AGPase [7], the “effect on Ki for phosphate (in words)” value is given as “decreased Ki for phosphate”.

B3: K445R: SH2 large subunit variant K445R (protein, UniProt P55241 46-516, looked up, variant K445R)
Glucose-1-phosphate …: FGGRVAATTQCILTSDACPETLHSQTQSSRKNYADANRVSAIILGGGTGSQLFPLTSTRATPAVPVGGCYRLIDIPMSNCFNSGINKIFVMSQFNSTSLNRHIHRTYLEGGINFADGSVQVLAATQMPEEPAGWFQGTADSIRKFIWVLEDYYSHKSIDNIVILSGDQLYRMNYMELVQKHVEDDADITISCAPVDESRASKNGLVKIDHTGRVLQFFEKPKGADLNSMRVETNFLSYAIDDAQKYPYLASMGIYVFKKDALLDLLKSKYTQLHDFGSEILPRAVLDHSVQACIFTGYWEDVGTIKSFFDANLALTEQPSKFDFYDPKTPFFTAPRCLPPTQLDKCKMKYAFISDGCLLRECNIEHSVIGVCSRVSSGCELKDSVMMGADTYETEEEASRLLLAGKVPVGIGRNTKIRNCIIDMNARIGKNVVITNSKGIQEADHPEEGYYIRSGIVVILKNATINDGSVI
B3: the “glycogen staining (in words)” value in the data set with E. coli AC70R1-504 (setting [9]) was “Stained darker at 37 and 42 °C”.

B4: S444A: SH2 large subunit variant S444A (protein, UniProt P55241 46-516, looked up, variant S444A)
Glucose-1-phosphate …: FGGRVAATTQCILTSDACPETLHSQTQSSRKNYADANRVSAIILGGGTGSQLFPLTSTRATPAVPVGGCYRLIDIPMSNCFNSGINKIFVMSQFNSTSLNRHIHRTYLEGGINFADGSVQVLAATQMPEEPAGWFQGTADSIRKFIWVLEDYYSHKSIDNIVILSGDQLYRMNYMELVQKHVEDDADITISCAPVDESRASKNGLVKIDHTGRVLQFFEKPKGADLNSMRVETNFLSYAIDDAQKYPYLASMGIYVFKKDALLDLLKSKYTQLHDFGSEILPRAVLDHSVQACIFTGYWEDVGTIKSFFDANLALTEQPSKFDFYDPKTPFFTAPRCLPPTQLDKCKMKYAFISDGCLLRECNIEHSVIGVCSRVSSGCELKDSVMMGADTYETEEEAAKLLLAGKVPVGIGRNTKIRNCIIDMNARIGKNVVITNSKGIQEADHPEEGYYIRSGIVVILKNATINDGSVI
Consider B4, for which, in the data set with maize endosperm AGPase [6] (ref Boehlein et al., 2014), the “effect on 3-PGA Ka (in words)” value is recorded as “Did not alter 3-PGA Ka”.

B5: E438Q: SH2 large subunit variant E438Q (protein, UniProt P55241 46-516, looked up, variant E438Q)
Glucose-1-phosphate …: FGGRVAATTQCILTSDACPETLHSQTQSSRKNYADANRVSAIILGGGTGSQLFPLTSTRATPAVPVGGCYRLIDIPMSNCFNSGINKIFVMSQFNSTSLNRHIHRTYLEGGINFADGSVQVLAATQMPEEPAGWFQGTADSIRKFIWVLEDYYSHKSIDNIVILSGDQLYRMNYMELVQKHVEDDADITISCAPVDESRASKNGLVKIDHTGRVLQFFEKPKGADLNSMRVETNFLSYAIDDAQKYPYLASMGIYVFKKDALLDLLKSKYTQLHDFGSEILPRAVLDHSVQACIFTGYWEDVGTIKSFFDANLALTEQPSKFDFYDPKTPFFTAPRCLPPTQLDKCKMKYAFISDGCLLRECNIEHSVIGVCSRVSSGCELKDSVMMGADTYQTEEEASKLLLAGKVPVGIGRNTKIRNCIIDMNARIGKNVVITNSKGIQEADHPEEGYYIRSGIVVILKNATINDGSVI
In the case of B5, in the data set on maize endosperm AGPase [6] (ref Georgelis et al., 2009), the “effect on 3-PGA Ka (in words)” value was “Did not alter 3-PGA Ka”.

B6: S444R: SH2 large subunit variant S444R (protein, UniProt P55241 46-516, looked up, variant S444R)
Glucose-1-phosphate …: FGGRVAATTQCILTSDACPETLHSQTQSSRKNYADANRVSAIILGGGTGSQLFPLTSTRATPAVPVGGCYRLIDIPMSNCFNSGINKIFVMSQFNSTSLNRHIHRTYLEGGINFADGSVQVLAATQMPEEPAGWFQGTADSIRKFIWVLEDYYSHKSIDNIVILSGDQLYRMNYMELVQKHVEDDADITISCAPVDESRASKNGLVKIDHTGRVLQFFEKPKGADLNSMRVETNFLSYAIDDAQKYPYLASMGIYVFKKDALLDLLKSKYTQLHDFGSEILPRAVLDHSVQACIFTGYWEDVGTIKSFFDANLALTEQPSKFDFYDPKTPFFTAPRCLPPTQLDKCKMKYAFISDGCLLRECNIEHSVIGVCSRVSSGCELKDSVMMGADTYETEEEARKLLLAGKVPVGIGRNTKIRNCIIDMNARIGKNVVITNSKGIQEADHPEEGYYIRSGIVVILKNATINDGSVI
As for B6, in the data set with maize endosperm AGPase [8], the “activity at 37° (in words)” value was “had higher activity at 37°”. The “glycogen staining (in words)” value with E. coli AC70R1-504 (setting [9]) was “Stained darker at 37 and 42°”.

Values taken from article PMC6300691, “Enhancement of Heat Stability and Kinetic Parameters of the Maize Endosperm ADP-Glucose Pyrophosphorylase by Mutagenesis of Amino Acids in the Small Subunit With High B Factors” (Frontiers in Plant Science, 2018).
